The target of experiment [1] is T1, human TLR7 (variant 1)-Flag, expressed in HEK293 cells (human, UniProt Q9NYK1 27-1049).
T1 construct: Transient expression from pcDNA3.1 in Lenti-X HEK293T cells; cells fixed and permeabilised before staining; not shown: Flag tag
T1 sequence: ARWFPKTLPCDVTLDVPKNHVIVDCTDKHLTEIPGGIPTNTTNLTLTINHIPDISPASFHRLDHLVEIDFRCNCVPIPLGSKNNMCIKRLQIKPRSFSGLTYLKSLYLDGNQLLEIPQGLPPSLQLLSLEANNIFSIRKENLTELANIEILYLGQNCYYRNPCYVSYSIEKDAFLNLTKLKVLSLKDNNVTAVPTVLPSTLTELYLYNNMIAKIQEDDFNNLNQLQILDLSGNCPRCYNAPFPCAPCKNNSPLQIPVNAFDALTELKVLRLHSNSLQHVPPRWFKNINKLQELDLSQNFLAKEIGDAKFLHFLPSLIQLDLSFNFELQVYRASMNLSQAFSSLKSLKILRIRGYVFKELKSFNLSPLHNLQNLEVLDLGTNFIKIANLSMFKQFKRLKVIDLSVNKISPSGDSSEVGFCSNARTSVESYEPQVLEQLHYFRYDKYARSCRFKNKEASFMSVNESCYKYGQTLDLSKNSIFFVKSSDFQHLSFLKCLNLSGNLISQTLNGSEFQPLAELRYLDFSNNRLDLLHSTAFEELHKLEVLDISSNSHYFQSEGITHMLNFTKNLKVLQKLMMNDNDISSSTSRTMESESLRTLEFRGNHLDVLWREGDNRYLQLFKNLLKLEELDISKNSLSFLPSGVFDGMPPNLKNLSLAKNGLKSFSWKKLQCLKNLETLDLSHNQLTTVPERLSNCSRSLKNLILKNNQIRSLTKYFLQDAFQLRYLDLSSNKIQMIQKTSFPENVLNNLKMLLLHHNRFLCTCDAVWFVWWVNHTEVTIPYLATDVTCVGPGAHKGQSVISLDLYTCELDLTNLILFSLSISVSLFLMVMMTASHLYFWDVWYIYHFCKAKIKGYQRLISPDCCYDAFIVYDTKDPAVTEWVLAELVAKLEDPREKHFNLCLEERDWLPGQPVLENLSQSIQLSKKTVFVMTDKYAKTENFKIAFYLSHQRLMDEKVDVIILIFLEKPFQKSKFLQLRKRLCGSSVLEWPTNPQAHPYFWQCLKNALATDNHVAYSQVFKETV
Kind of experiment: flow cytometry on fixed and permeabilised HEK293 cells expressing human TLR7 (variant 1)-Flag. An excerpt: (§1) The HEK293 cells expressing human TLR7 (variant 1)-Flag prepared in 8)-1, the HEK293 cells expressing human TLR7 (variant 2)-Flag prepared in 8)-2, the HEK293 cells expressing monkey TLR7-Flag prepared in 8)-3, the HEK293 cells expressing mouse TLR7-Flag prepared in 8)-4, and the HEK293 cells expressing rat TLR7-Flag prepared in 8)-5 were immobilized/subjected to membrane permeation with a Fixation and Permeabilization Solution (Becton, Dickinson and Company) and thereafter stained using huAT01_H3L2_IgG1LALA, which is one of the humanized anti-human TLR7 antibodies, and ALEXA FLUOR® 647 AffiniPure Goat anti-human IgG+IgM (H+L) (Jackson ImmunoResearch Inc.), which is the secondary antibody.
(§2) The binding of the humanized anti-human TLR7 antibody to human TLR7 was detected based on flow cytometry (Miltenyi Biotec K.K.), and the data was analyzed using software (Flowjo) which analyzes the data of flow cytometry.

The target in experiment [2] is T2, human TLR7 (variant 2)-Flag, expressed in HEK293 cells (human, UniProt Q9NYK1 27-1049).
T2 construct: Transient expression from pcDNA3.1 in Lenti-X HEK293T cells; cells fixed and permeabilised before staining; not shown: Flag tag
T2 sequence: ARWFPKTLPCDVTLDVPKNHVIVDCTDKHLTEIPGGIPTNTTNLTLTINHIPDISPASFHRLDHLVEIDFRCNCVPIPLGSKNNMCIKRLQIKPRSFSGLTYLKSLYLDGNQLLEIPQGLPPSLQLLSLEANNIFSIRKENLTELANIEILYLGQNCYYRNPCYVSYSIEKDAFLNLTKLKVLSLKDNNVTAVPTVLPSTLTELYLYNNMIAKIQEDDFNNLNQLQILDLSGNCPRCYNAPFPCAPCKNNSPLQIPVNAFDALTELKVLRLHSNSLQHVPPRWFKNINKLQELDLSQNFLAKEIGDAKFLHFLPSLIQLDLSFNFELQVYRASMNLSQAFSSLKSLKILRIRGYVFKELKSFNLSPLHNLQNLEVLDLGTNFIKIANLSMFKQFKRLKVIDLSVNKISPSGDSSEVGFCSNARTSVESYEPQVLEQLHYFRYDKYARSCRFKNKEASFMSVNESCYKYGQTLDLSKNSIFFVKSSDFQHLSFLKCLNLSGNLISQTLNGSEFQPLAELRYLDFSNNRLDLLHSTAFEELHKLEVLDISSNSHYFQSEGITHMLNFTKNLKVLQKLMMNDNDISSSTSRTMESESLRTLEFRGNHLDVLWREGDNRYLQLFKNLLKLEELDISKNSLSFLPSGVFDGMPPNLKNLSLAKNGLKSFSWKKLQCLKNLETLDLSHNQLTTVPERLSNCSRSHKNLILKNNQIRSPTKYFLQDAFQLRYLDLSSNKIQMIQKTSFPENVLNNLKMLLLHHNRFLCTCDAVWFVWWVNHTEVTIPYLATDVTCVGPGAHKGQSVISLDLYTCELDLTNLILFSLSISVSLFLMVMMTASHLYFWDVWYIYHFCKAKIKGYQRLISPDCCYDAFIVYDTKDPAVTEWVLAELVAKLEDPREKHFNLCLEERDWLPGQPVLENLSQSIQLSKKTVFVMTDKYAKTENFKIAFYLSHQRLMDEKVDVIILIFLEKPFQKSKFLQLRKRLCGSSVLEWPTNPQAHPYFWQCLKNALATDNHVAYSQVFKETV
Kind of experiment: flow cytometry on fixed and permeabilised HEK293 cells expressing human TLR7 (variant 2)-Flag.
Description: as §1, §2

B1: huAT01_H3L2_IgG1LALA antibody (antibody, V domains shown)
VH: QVQLVQSGAEVKKPGASVKVSCKASGYTFTNNWLHWVRQAPGQGLEWMGDIYPSNGRTNYAQKFQGRVTLTVDKSTSTAYMELSSLRSEDTAVYFCARERGYFDYWGQGTLVTVSS
VL: DIQMTQSPSSLSASVGDRVTITCKASQDINKYIAWYQQKPGKAPKLLIHYTSTLQPGIPSRFSGSGSGRDYTLTISSLQPEDFATYYCLQYDYLLTFGQGTKVEIKR
notes: Humanized AT01; heavy huAT01_H3_IgG1LALA, light huAT01_L2
As for B1, the binding result in experiment [1] and in experiment [2] was “binds” in each case.

Values taken from patent publication US20230212306A1 (Daiichi Sankyo, published 2023).
